According to the RNAGym collection of RNA variant scans (doi:10.7554/elife.80360):

B1: HDV Ribozyme (parent)
chain: GGCCGGCAUGGUCCCAGCCUCCUCGCUGGCGCCGGCUGGGCAACAUUCCGAGGGGACCGUCCCCUCGGUAAUGGCGAAUGGGACCCA

Variants of: B1
Experiment: self-cleavage, relative activity (ratio to wild type); higher = more cleavage; co-transcriptional

First: GGCCGGCAUGGUCCAAGCCUCCUCGCUGGCGCCGGCUGGGCAACAUUCCGAGGGGACCGUCACCUCGGUAAUGGCGAAUGGGACCCA [C15A C62A]
Second: GGCCGGCAUGGUCCAAGCCUCCUCGCUGGCGCCGGCUGGGCAACAUUCCGAGGGGACCGUCGCCUCGGUAAUGGCGAAUGGGACCCA [C15A C62G]
The self-cleavage of the first is higher: 0.677 for the first, 0.499 for the second.

Compared with GGCCGGCAUGGUCCAAGCCUCCUCGCUGGCGCCGGCUGGGCAACAUUCCGAGGGGACCGUCUCCUCGGUAAUGGCGAAUGGGACCCA [C15A C62U], GGCCGGCAUGGUCCAAGCCUACUCGCUGGCGCCGGCUGGGCAACAUUCCGAGGGGACCGUCCCCUCGGUAAUGGCGAAUGGGACCCA [C15A C21A] is lower in self-cleavage: 0.764 for the first, 0 for the second.

First: GGCCGGCAUGGUCCAAGCCUUCUCGCUGGCGCCGGCUGGGCAACAUUCCGAGGGGACCGUCCCCUCGGUAAUGGCGAAUGGGACCCA [C15A C21U]
Second: GGCCGGCAUGGUCCAAGCCUCCUCGCUGGCGCCGGCUGGGCAACAUUGCGAGGGGACCGUCCCCUCGGUAAUGGCGAAUGGGACCCA [C15A C48G]
The self-cleavage of the first is lower: 0.0415 for the first, 0.475 for the second.

Compared with GGCCGGCAUGGUCCAAGCCUCCUCGCUGGCGCCGGCUGGGCAACAUUCCGAGGGGACCGUCCCCUCGGUAAUGGCGAAUGGGACGCA [C15A C85G], GGCCGGCAUGGUCCAAACCUCCUCGCUGGCGCCGGCUGGGCAACAUUCCGAGGGGACCGUCCCCUCGGUAAUGGCGAAUGGGACCCA [C15A G17A] is lower in self-cleavage: 0.739 for the first, 0.302 for the second.

Compared with GGCCGGCAUGGUCCAAGCCUCCUCGCUGGUGCCGGCUGGGCAACAUUCCGAGGGGACCGUCCCCUCGGUAAUGGCGAAUGGGACCCA [C15A C30U], GGCCGGCAUGGUCUCAGCCUCCUCGCUGGCGCCGACUGGGCAACAUUCCGAGGGGACCGUCCCCUCGGUAAUGGCGAAUGGGACCCA [C14U G35A] is higher in self-cleavage: 0.104 for the first, 0.631 for the second.

Going from GGCCGGCAUGGUCCAAGCCUCCUCGCUGGCGCCGGCUGGGCACCAUUCCGAGGGGACCGUCCCCUCGGUAAUGGCGAAUGGGACCCA [C15A A43C] to GGCCGGCAUGGUCCAAGCCUCCUCGCUGGCGCCGGCUGGGCAGCAUUCCGAGGGGACCGUCCCCUCGGUAAUGGCGAAUGGGACCCA [C15A A43G], the self-cleavage rises from 0.0554 to 0.323.

First: GGCCGGCAUGGUCUCAGCCUCCUCGCUGGCGCCGGCUGGGCAACAUUCCGAGGUGACCGUCCCCUCGGUAAUGGCGAAUGGGACCCA [C14U G54U]
Second: GGCCGGCAUGGUCCAAGCCUCCUCGCUGGCGCCGGCUGGGCAACAUUCCGAGGGGGCCGUCCCCUCGGUAAUGGCGAAUGGGACCCA [C15A A56G]
The self-cleavage of the first is higher: 1.23 for the first, 0.587 for the second.

Compared with GGCCGGCAUGGUCUCAGCCUCCUCGCUGGCGCCGGCUUGGCAACAUUCCGAGGGGACCGUCCCCUCGGUAAUGGCGAAUGGGACCCA [C14U G38U], GGCCGGCAUGGUCCAAGCGUCCUCGCUGGCGCCGGCUGGGCAACAUUCCGAGGGGACCGUCCCCUCGGUAAUGGCGAAUGGGACCCA [C15A C19G] is lower in self-cleavage: 0.271 for the first, 0.0519 for the second.

Compared with GGCCGGCAUGGUCCAAGCUUCCUCGCUGGCGCCGGCUGGGCAACAUUCCGAGGGGACCGUCCCCUCGGUAAUGGCGAAUGGGACCCA [C15A C19U], GGCCGGCAUGGUCUCAGCCUCCUCGCUGGCGCCGGCUGGGCAACAUUCCGAGGGGACCGUCCCCUCGGUAAUGGCCAAUGGGACCCA [C14U G76C] is higher in self-cleavage: 0.089 for the first, 1.06 for the second.

First: GGCCGGCAUGGUCCAAGCCUCCUCGCUGGCGCCGGCUGGGCAACAUUCCGAGGGGACCGUCCCCUCGGUAAUGGCGAAUGGGACCAA [C15A C86A]
Second: GGCCGGCAUGGUCCAAGCCUCCUCGCUGGCGCCGGCUGGGCAACAUUCCGAGGGGACCGUCCCCUCGGUAAUGGCGAAUGGGACCCA [C15A]
The self-cleavage of the first is lower: 0.665 for the first, 0.698 for the second.

Compared with GGCCGGCAUGGUCUCAGCCUCCUCGCUGGCGCCGGCUGGGCAACAUUCCGAGGGGACCGUCCCCUCGGUAAUGGCGAAUCGGACCCA [C14U G80C], GGCCGGCAUGGUCUCAGCCUCCUCGCUGGCGCCGGCUGGGCAACAUUCCGAGGGGACCGUCCCCUCGGUAAUGGCGAAUUGGACCCA [C14U G80U] is higher in self-cleavage: 0.314 for the first, 0.4 for the second.

First: GGCCGGCAUGGUCUCAGCCUCCUCGCUGGCGCCGGCUGGGCAACAUUCCGAGGGCACCGUCCCCUCGGUAAUGGCGAAUGGGACCCA [C14U G55C]
Second: GGCCGGCAUGGUCCAAGCCUCCUCGCUGGCGCCGGCUGGGCAACAUUCCGAGGGGACCGUCCCCUCGGUAAUGGCGAAUGGGAACCA [C15A C84A]
The self-cleavage of the first is higher: 1.05 for the first, 0.539 for the second.

First: GGCCGGCAUGGUCUCAGCCUCCUCGCUGGCGCCCGCUGGGCAACAUUCCGAGGGGACCGUCCCCUCGGUAAUGGCGAAUGGGACCCA [C14U G34C]
Second: GGCCGGCAUGGUCUCAGCCCCCUCGCUGGCGCCGGCUGGGCAACAUUCCGAGGGGACCGUCCCCUCGGUAAUGGCGAAUGGGACCCA [C14U U20C]
The self-cleavage of the first is higher: 0.172 for the first, 0.133 for the second.

Compared with GGCCGGCAUGGUCUCAGCCUCCUCGCUGGCGCCGGCUGGGCAACAUUCCCAGGGGACCGUCCCCUCGGUAAUGGCGAAUGGGACCCA [C14U G50C], GGCCGGCAUGGUCUCAGCCUCCUCGCUGGCGCCGGCUGGGCAACAUUCCUAGGGGACCGUCCCCUCGGUAAUGGCGAAUGGGACCCA [C14U G50U] is lower in self-cleavage: 1.11 for the first, 1.09 for the second.

First: GGCCGGCAUGGUCUCAGCCUCCUCGCUGGCGCCGGCUGGGCAACAUUCCGAGGGGACCGUCCCCUCGGUAAUGGCGAAUGGAACCCA [C14U G82A]
Second: GGCCGGCAUGGUCCAAGCCUCCUCGCUGGCGCCGGCUGGGCAACCUUCCGAGGGGACCGUCCCCUCGGUAAUGGCGAAUGGGACCCA [C15A A45C]
The self-cleavage of the first is higher: 0.323 for the first, 0.151 for the second.

Going from GGCCGGCAUGGUCCAAGCCUCCUCGCUGGCGCCGGCUGGGCAACGUUCCGAGGGGACCGUCCCCUCGGUAAUGGCGAAUGGGACCCA [C15A A45G] to GGCCGGCAUGGUCCAAGCCUCCUCGCUGGCGCCGGCUGGGCAACAUUCUGAGGGGACCGUCCCCUCGGUAAUGGCGAAUGGGACCCA [C15A C49U], the self-cleavage falls from 0.8 to 0.656.
